In test [1] the target is T1, murine interleukin 17E receptor present on the pre-B cell line 70Z/3 (murine, UniProt Q9JIP3 18-499).
T1 construct: whole, on cells; This is the endogenous receptor on 70Z/3 cells; also called murine IL-17E receptor; IL-17E receptor
T1 sequence (looked up): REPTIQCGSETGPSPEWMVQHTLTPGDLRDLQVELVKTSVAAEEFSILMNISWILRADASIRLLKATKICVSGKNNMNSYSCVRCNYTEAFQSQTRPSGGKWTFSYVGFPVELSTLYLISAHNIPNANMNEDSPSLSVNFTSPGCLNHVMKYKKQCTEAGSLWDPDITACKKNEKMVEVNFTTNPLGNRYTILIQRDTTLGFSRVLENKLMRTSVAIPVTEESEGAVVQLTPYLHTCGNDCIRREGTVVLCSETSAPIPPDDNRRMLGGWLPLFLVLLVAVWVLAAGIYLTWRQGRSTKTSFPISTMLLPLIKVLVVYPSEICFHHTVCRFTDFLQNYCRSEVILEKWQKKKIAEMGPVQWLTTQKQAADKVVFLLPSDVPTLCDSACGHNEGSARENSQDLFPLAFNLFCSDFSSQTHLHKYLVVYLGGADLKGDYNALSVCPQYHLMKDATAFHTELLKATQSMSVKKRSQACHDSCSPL
The test is described as follows: FACS on 70Z/3 cells incubated with IL-17E (1 ug/10^6 cells), detected with biotin-conjugated goat anti-mouse IL17E and PE-Cy5.5 streptavidin. The procedure:
(§1) The ability of human and murine interleukin 17E to bind to the IL-17E receptor was examined using the murine pre-B cell line 70Z/3 (Paige, C. J., et al. (1981) Nature 292:631-3).
(§2) Fluorescence-Activated Cell Sorter (FACS) Analysis: 1×10⁶ 70Z/3 cells/sample were incubated with either murine or human IL-17E (1 μg/10⁶ cells) for 30 minutes at 4° C. After washing twice, cells that had been incubated with murine IL-17E were incubated with biotin-conjugated goat anti-mouse IL17E and phycoerythrin (PE)-Cy5.5-conjugated streptavidin. Cells that had been incubated with human IL-17E were incubated with biotin-conjugated goat anti-human IL17E-biotin and phycoerythrin (PE)-Cy5.5-conjugated streptavidin. As negative controls, cells were stained with antibodies as described without preincubation with human or murine IL-17E. Samples were then fixed with 0.5% paraformaldehyde prior to FACS analysis.

The target of test [2] is T1, murine interleukin 17E receptor present …. The test is described as follows: FACS on 70Z/3 cells incubated with IL-17E (1 ug/10^6 cells), detected with biotin-conjugated goat anti-human IL17E and PE-Cy5.5 streptavidin. As to the method: as §1, §2

B1: murine interleukin 17E (ligand)
chain: VSLRIQEGCSHLPSCCPSKEQEPPEEWLKWSSASVSPPEPLSHTHHAESCRASKDGPLNSRAISPWSYELDRDLNRVPQDLYHARCLCPHCVSLQTGSHMDPLGNSVPLYHNQTVFYRRPCHGEEGTHRRYCLERRLYRVSLACVCVRPRVMA
notes: also called murine IL-17E; mIL-17E
As for B1, in test [1], the binding result is “binds”.

B2: recombinant human interleukin 17E (ligand)
chain: YSHWPSCCPSKGQDTSEELLRWSTVPVPPLEPARPNRHPESCRASEDGPLNSRAISPWRYELDRDLNRLPQDLYHARCLCPHCVSLQTGSHMDPRGNSELLYHNQTVFYRRPCHGEKGTHKGYCLERRLYRVSLACVCVRPRVMG
notes: also called human IL-17E; hIL-17E
For B2, the binding result in test [2] was “binds”.

The values above are taken from patent publication US20110158936A1 (LORUS THERAPEUTICS, published 2011).
